Values of other authors, collected in patent US20200069786A1, “COMPOSITION AND PROCESS FOR PREPARING VACCINE” (TREOS BIO ZRT., priority 2018, published 2020).

B1: WBP2NL (protein, UniProt Q6ICG8 1-309, looked up)
Postacrosomal sheath WW …: MAVNQSHTENRRGALIPNGESLLKRSPNVELSFPQRSEGSNVFSGRKTGTLFLTSYRVIFITSCSISDPMLSFMMPFDLMTNLTVEQPVFAANFIKGTIQAAPYGGWEGQATFKLVFRNGDAIEFAQLMVKAASAAARGFPLRTLNDWFSSMGIYVITGEGNMCTPQMPCSVIVYGAPPAGYGAPPPGYGAPPAGYGAQPVGNEGPPVGYRASPVRYGAPPLGYGAPPAGYGAPPLGYGAPPLGYGTPPLGYGAPPLGYGAPPAGNEGPPAGYRASPAGSGARPQESTAAQAPENEASLPSASSSQVHS
B2: ACRBP (protein, UniProt Q8NEB7 26-543, looked up)
Acrosin-binding protein: QDSTQASTPGSPLSPTEYERFFALLTPTWKAETTCRLRATHGCRNPTLVQLDQYENHGLVPDGAVCSNLPYASWFESFCQFTHYRCSNHVYYAKRVLCSQPVSILSPNTLKEIEASAEVSPTTMTSPISPHFTVTERQTFQPWPERLSNNVEELLQSSLSLGGQEQAPEHKQEQGVEHRQEPTQEHKQEEGQKQEEQEEEQEEEGKQEEGQGTKEGREAVSQLQTDSEPKFHSESLSSNPSSFAPRVREVESTPMIMENIQELIRSAQEIDEMNEIYDENSYWRNQNPGSLLQLPHTEALLVLCYSIVENTCIITPTAKAWKYMEEEILGFGKSVCDSLGRRHMSTCALCDFCSLKLEQCHSEASLQRQQCDTSHKTPFVSPLLASQSLSIGNQVGSPESGRFYGLDLYGGLHMDFWCARLATKGCEDVRVSGWLQTEFLSFQDGDFPTKICDTDYIQYPNYCSFKSQQCLMRNRNRKVSRMRCLQNETYSALSPGKSEDVVLRWSQEFSTLTLGQFG
B3: MAGE-A6 (protein, UniProt P43360 1-314, looked up)
Melanoma-associated antigen 6: MPLEQRSQHCKPEEGLEARGEALGLVGAQAPATEEQEAASSSSTLVEVTLGEVPAAESPDPPQSPQGASSLPTTMNYPLWSQSYEDSSNQEEEGPSTFPDLESEFQAALSRKVAKLVHFLLLKYRAREPVTKAEMLGSVVGNWQYFFPVIFSKASDSLQLVFGIELMEVDPIGHVYIFATCLGLSYDGLLGDNQIMPKTGFLIIILAIIAKEGDCAPEEKIWEELSVLEVFEGREDSIFGDPKKLLTQYFVQENYLEYRQVPGSDPACYEFLWGPRALIETSYVKVLHHMVKISGGPRISYPLLHEWALREGEE
B4: MAGE-A12 (protein, UniProt P43365 1-314, looked up)
Melanoma-associated antigen 12: MPLEQRSQHCKPEEGLEAQGEALGLVGAQAPATEEQETASSSSTLVEVTLREVPAAESPSPPHSPQGASTLPTTINYTLWSQSDEGSSNEEQEGPSTFPDLETSFQVALSRKMAELVHFLLLKYRAREPFTKAEMLGSVIRNFQDFFPVIFSKASEYLQLVFGIEVVEVVRIGHLYILVTCLGLSYDGLLGDNQIVPKTGLLIIVLAIIAKEGDCAPEEKIWEELSVLEASDGREDSVFAHPRKLLTQDLVQENYLEYRQVPGSDPACYEFLWGPRALVETSYVKVLHHLLKISGGPHISYPPLHEWAFREGEE
B5: TEKT5 (protein, UniProt Q96M29 1-485, looked up)
Tektin-5: MEFLGTTQTASYCGPKKCCGLTSLPAVQAPVIQECYQPYYLPGYRYLNSWRPSLFYKIANVQTCPDESTSTLRPPTILPTLRSALFSRYSPHDWDQSNQLQVRGAEASRLWASRLTDDSMRLLQDKDQLTHQMQEGTCRNLGQRLSDIGFWKSELSYELDRLLTENQNLETVKRRLECAANEVNCPLQVALECLYHREKRIGIDLVHDNVEKNLIREVDLLKCCQEQMRKLAQRIDIQMRDNRDAQHVLERDLEDKSSAQCIDEKCFNLRNTSDCISFFHGMEKIDGTISVPETWAKFSNDNIKHSQNMRANSIQLREEAEHLFETLSDQMWRQFTDTNLAFNARISEVTDVKNKLQTQLAKTLQEIFQAENTIMLLERSIMAKEGPLKVAQTRLECRTRRPNMELCRDIPQLKLVNEVFTIDDTLQTLKLRLRETQDTLQLLVMTKCRLEHELAIKANTLCIDKEKCMGMRKTFPCTPRLVGHT
B6: IGFS11 (protein, UniProt Q5DX21 23-431, looked up)
Immunoglobulin superfamily …: LEVSESPGSIQVARGQPAVLPCTFTTSAALINLNVIWMVTPLSNANQPEQVILYQGGQMFDGAPRFHGRVGFTGTMPATNVSIFINNTQLSDTGTYQCLVNNLPDIGGRNIGVTGLTVLVPPSAPHCQIQGSQDIGSDVILLCSSEEGIPRPTYLWEKLDNTLKLPPTATQDQVQGTVTIRNISALSSGLYQCVASNAIGTSTCLLDLQVISPQPRNIGLIAGAIGTGAVIIIFCIALILGAFFYWRSKNKEEEEEEIPNEIREDDLPPKCSSAKAFHTEISSSDNNTLTSSNAYNSRYWSNNPKVHRNTESVSHFSDLGQSFSFHSGNANIPSIYANGTHLVPGQHKTLVVTANRGSSPQVMSRSNGSVSRKPRPPHTHSYTISHATLERIGAVPVMVPAQSRAGSLV
B7: FATE1 (protein, UniProt Q969F0 1-183, looked up)
Fetal and adult …: MAGGPPNTKAEMEMSLAEELNHGRQGENQEHLVIAEMMELGSRSRGASQKKQKLEQKAAGSASAKRVWNMTATRPKKMGSQLPKPRMLRESGHGDAHLQEYAGNFQGIRFHYDRNPGTDAVAQTSLEEFNVLEMEVMRRQLYAVNRRLRALEEQGATWRHRETLIIAVLVSASIANLWLWMNQ
B8: MAGE-A8 (protein, UniProt P43361 1-318, looked up)
Melanoma-associated antigen 8: MLLGQKSQRYKAEEGLQAQGEAPGLMDVQIPTAEEQKAASSSSTLIMGTLEEVTDSGSPSPPQSPEGASSSLTVTDSTLWSQSDEGSSSNEEEGPSTSPDPAHLESLFREALDEKVAELVRFLLRKYQIKEPVTKAEMLESVIKNYKNHFPDIFSKASECMQVIFGIDVKEVDPAGHSYILVTCLGLSYDGLLGDDQSTPKTGLLIIVLGMILMEGSRAPEEAIWEALSVMGLYDGREHSVYWKLRKLLTQEWVQENYLEYRQAPGSDPVRYEFLWGPRALAETSYVKVLEHVVRVNARVRISYPSLHEEALGEEKGV
B9: CAGE1 (protein, UniProt Q8TC20 1-777, looked up)
Cancer-associated gene 1 …: MNKDYQKFWSSPSDPVHFEVDTSHEKVESMSESDTMNVSNLSQGVMLSHSPICMETTGTTCDLPQNEIKNFERENEYESTLCEDAYGTLDNLLNDNNIENYSTNALIQPVDTISISSLRQFETVCKFHWVEAFDDEMTEKPEFQSQVYNYAKDNNIKQDSFKEENPMETSVSANTDQLGNEYFRQPPPRSPPLIHCSGEMLKFTEKSLAKSIAKESALNPSQPPSFLCKTAVPSKEIQNYGEIPEMSVSYEKEVTAEGVERPEIVSTWSSAGISWRSEACRENCEMPDWEQSAESLQPVQEDMALNEVLQKLKHTNRKQEVRIQELQCSNLYLEKRVKELQMKITKQQVFIDVINKLKENVEELIEDKYKIILEKNDTKKTLQNLEEVLANTQKHLQESRNDKEMLQLQFKKIKANYVCLQERYMTEMQQKNKSVSQYLEMDKTLSKKEEEVERLQQLKKELEKATASALDLLKREKEAQEQEFLSLQEEFQKLEKENLEERQKLKSRLEKLLTQVRNLQFMSENERTKNIKLQQQINEVKNENAKLKQQVARSEEQNYVPKFETAQLKDQLEEVLKSDITKDTKTTHSNLLPDCSPCEERLNPADIKRASQLASKMHSLLALMVGLLTCQDIINSDAEHFKESEKVSDIMLQKLKSLHLKKKTLDKEVIDCDSDEAKSIRDVPTLLGAKLDKYHSLNEELDFLVTSYEEIIECADQRLAISHSQIAHLEERNKHLEDLIRKPREKARKPRSKSLENHPKSMTMMPALFKENRNDLD
B10: TSPY1 (protein, UniProt Q01534 1-308, looked up)
Testis-specific Y-encoded …: MRPEGSLTYRVPERLRQGFCGVGRAAQALVCASAKEGTAFRMEAVQEGAAGVESEQAALGEEAVLLLDDIMAEVEVVAEEEGLVERREEAQRAQQAVPGPGPMTPESAPEELLAVQVELEPVNAQARKAFSRQREKMERRRKPHLDRRGAVIQSVPGFWANVIANHPQMSALITDEDEDMLSYMVSLEVGEEKHPVHLCKIMLFFRSNPYFQNKVITKEYLVNITEYRASHSTPIEWYPDYEVEAYRRRHHNSSLNFFNWFSDHNFAGSNKIAEILCKDLWRNPLQYYKRMKPPEEGTETSGDSQLLS

tested on: TSA; settings: BREAST

| Molecule | TSA Expression Rate (ER) |
| --- | --- |
| B1 | 50% |
| B2 | 40% |
| B3 | 15% |
| B4 | 12% |

same assay, conditions: HCC

| Molecule | TSA Expression Rate (ER) |
| --- | --- |
| B2 | 70% |
| B5 | 60% |
| B6 | 60% |
| B7 | 49% |
| B8 | 45% |
| B9 | 39% |
| B3 | 36% |
| B4 | 36% |
| B10 | 35% |

same assay, conditions: LUNG

| Molecule | TSA Expression Rate (ER) |
| --- | --- |
| B2 | 20% |
| B3 | 51% |
| B4 | 31% |

same assay, conditions: OVARIAN

| Molecule | TSA Expression Rate (ER) |
| --- | --- |
| B2 | 65% |

same assay, conditions: TSA expression rate in BLADDER cancer

| Molecule | Expression Rate (ER) % |
| --- | --- |
| B2 | 28% |
| B8 | 57% |
| B3 | 25% |
| B4 | 29% |
| B10 | 0% |

same assay, conditions: TSA expression rate in CRC

| Molecule | Expression Rate (ER) % |
| --- | --- |
| B2 | 63% |
| B5 | 50% |
| B7 | 21% |
| B8 | 44% |
| B9 | 74% |
| B3 | 22% |
| B4 | 6% |

same assay, conditions: TSA expression rate in Cervical cancer

| Molecule | Expression Rate (ER) % |
| --- | --- |
| B9 | 98% |

same assay, conditions: TSA expression rate in Esophageal

| Molecule | Expression Rate (ER) % |
| --- | --- |
| B3 | 68% |
| B4 | 26% |

same assay, conditions: TSA expression rate in GASTRIC cancer

| Molecule | Expression Rate (ER) % |
| --- | --- |
| B2 | 0% |
| B5 | 40% |
| B6 | 88% |
| B7 | 2% |
| B9 | 77% |
| B10 | 0% |

same assay, conditions: TSA expression rate in HEAD and NECK

| Molecule | Expression Rate (ER) % |
| --- | --- |
| B5 | 0% |
| B3 | 58% |
| B4 | 34% |

same assay, conditions: TSA expression rate in Kidney

| Molecule | Expression Rate (ER) % |
| --- | --- |
| B2 | 0% |
| B3 | 0% |
| B4 | 4% |
| B10 | 5% |

same assay, conditions: TSA expression rate in LEUKEMIAS

| Molecule | Expression Rate (ER) % |
| --- | --- |
| B4 | 21% |
| B10 | 12% |

same assay, conditions: TSA expression rate in LUNG cancer

| Molecule | Expression Rate (ER) % |
| --- | --- |
| B5 | 10% |
| B7 | 0% |
| B9 | 14% |
| B10 | 0% |

same assay, conditions: TSA expression rate in LYMPHOMAS

| Molecule | Expression Rate (ER) % |
| --- | --- |
| B10 | 0% |

same assay, conditions: TSA expression rate in MELANOMA

| Molecule | Expression Rate (ER) % |
| --- | --- |
| B8 | 10% |
| B3 | 65% |
| B4 | 49% |

same assay, conditions: TSA expression rate in PEDIATRIC

| Molecule | Expression Rate (ER) % |
| --- | --- |
| B3 | 80% |
| B4 | 41% |

same assay, conditions: TSA expression rate in PROSTATE cancer

| Molecule | Expression Rate (ER) % |
| --- | --- |
| B2 | 4% |
| B5 | 11% |
| B3 | 23% |
| B4 | 5% |
